Reference: patent US20240092841A1

Columns and labels:
[1] = biological target: Laminin subunit alpha-1 (human) (UniProt P25391); assay: co-IP with agarose-bound AvFc from H460 whole-cell lysate, mass spectrometry
[2] = biological target: Renin receptor (human) (UniProt O75787); assay: as above
[3] = biological target: Laminin subunit alpha-5 (human) (UniProt O15230); assay: as above
[4] = biological target: Integrin beta-5 (human) (UniProt P18084); assay: as above
[5] = biological target: Metal transporter CNNM4 (human) (UniProt Q6P4Q7); assay: as above
[6] = biological target: Epidermal growth factor receptor (human) (UniProt P00533); assay: as above
[7] = biological target: Attractin (O75882-2) (human) (UniProt O75882); assay: as above
[8] = biological target: CD109 antigen (Q6YHK3-4) (human) (UniProt Q6YHK3); assay: as above
[9] = biological target: Endothelial protein C receptor (human) (UniProt Q9UNN8); assay: as above
[10] = biological target: Filamin-A (human) (UniProt P21333); assay: as above
[11] = biological target: Transmembrane protein 106B (human) (UniProt Q9NUM4); assay: as above
[12] = biological target: Secretory carrier-associated membrane protein 3 (human) (UniProt O14828); assay: as above
[13] = biological target: Integrin alpha-3 (human) (UniProt P26006); assay: co-IP with agarose-bound AvFc from A549 whole-cell lysate, mass spectrometry
[14] = biological target: Importin subunit beta-1 (human) (UniProt Q14974); assay: as above
[15] = biological target: Agrin (human) (UniProt O00468); assay: as above
[16] = biological target: Cation-dependent mannose-6-phosphate receptor (human) (UniProt P20645); assay: as above
[17] = biological target: Disintegrin and metalloproteinase domain-containing protein 9 (human) (UniProt Q13443); assay: as above
[18] = biological target: Cation-independent mannose-6-phosphate receptor (human) (UniProt P11717); assay: as above
[19] = biological target: Erlin-1 (human) (UniProt O75477); assay: as above
[20] = biological target: CD109 antigen (human) (UniProt Q6YHK3); assay: as above
[21] = biological target: Disintegrin and metalloproteinase domain-containing protein 17 (human) (UniProt P78536); assay: as above
[22] = biological target: Transmembrane protein 2 (human) (UniProt Q9UHN6); assay: as above
[23] = biological target: Laminin subunit gamma-1 (human) (UniProt P11047); assay: as above
[24] = biological target: Multidrug resistance-associated protein 1 (human) (UniProt P33527); assay: as above
[25] = biological target: Galectin-3-binding protein (human) (UniProt Q08380); assay: as above
[26] = biological target: T-complex protein 1 subunit theta (human) (UniProt P50990); assay: as above
[27] = biological target: Spectrin beta chain, non-erythrocytic 1 (human) (UniProt Q01082); assay: as above
[28] = biological target: Endothelial protein C receptor (human) (UniProt Q9UNN8); assay: as above
[29] = biological target: Cell cycle control protein 50A (human) (UniProt Q9NV96); assay: as above
[30] = biological target: Sodium/potassium-transporting ATPase subunit beta-1 (human) (UniProt P05026); assay: as above
[31] = biological target: Neutral amino acid transporter B (0) (human) (UniProt Q15758); assay: as above
[32] = biological target: Attractin (human) (UniProt O75882); assay: as above
[33] = biological target: Plexin-B2 (human) (UniProt O15031); assay: as above
[34] = biological target: Magnesium transporter protein 1 (human) (UniProt Q9H0U3); assay: as above
[35] = biological target: Transmembrane protein 106B (human) (UniProt Q9NUM4); assay: as above
[36] = biological target: Mucin-5AC (human) (UniProt P98088); assay: as above
[37] = biological target: Transmembrane protein 131 (human) (UniProt Q92545); assay: as above
[38] = biological target: Prolow-density lipoprotein receptor-related protein 1 (human) (UniProt Q07954); assay: as above
[39] = biological target: Serpin H1 (human) (UniProt P50454); assay: as above
Chain of UniProt P50454 (P50454 19-418 limits assumed): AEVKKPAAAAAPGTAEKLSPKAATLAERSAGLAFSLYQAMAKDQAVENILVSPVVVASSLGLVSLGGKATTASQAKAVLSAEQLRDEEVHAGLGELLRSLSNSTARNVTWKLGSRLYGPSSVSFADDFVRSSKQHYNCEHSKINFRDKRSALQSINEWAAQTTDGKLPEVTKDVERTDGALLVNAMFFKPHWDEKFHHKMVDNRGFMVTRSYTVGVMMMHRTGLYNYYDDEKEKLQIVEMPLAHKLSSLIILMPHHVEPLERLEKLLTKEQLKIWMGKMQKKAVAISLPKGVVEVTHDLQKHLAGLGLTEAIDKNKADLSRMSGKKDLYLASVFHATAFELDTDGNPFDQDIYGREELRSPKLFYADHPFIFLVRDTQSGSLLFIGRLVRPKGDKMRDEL

Chain of UniProt Q9NUM4 (Q9NUM4 2-274 limits assumed): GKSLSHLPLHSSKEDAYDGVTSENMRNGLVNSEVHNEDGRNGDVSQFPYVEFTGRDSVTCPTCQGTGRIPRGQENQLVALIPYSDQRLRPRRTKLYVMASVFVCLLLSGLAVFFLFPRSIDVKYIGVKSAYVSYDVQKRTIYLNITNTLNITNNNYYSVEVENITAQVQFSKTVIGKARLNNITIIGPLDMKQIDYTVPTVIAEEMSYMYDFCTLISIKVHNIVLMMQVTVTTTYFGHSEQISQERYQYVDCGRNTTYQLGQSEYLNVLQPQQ
Chain of UniProt Q9UNN8 (Q9UNN8 18-238 limits assumed): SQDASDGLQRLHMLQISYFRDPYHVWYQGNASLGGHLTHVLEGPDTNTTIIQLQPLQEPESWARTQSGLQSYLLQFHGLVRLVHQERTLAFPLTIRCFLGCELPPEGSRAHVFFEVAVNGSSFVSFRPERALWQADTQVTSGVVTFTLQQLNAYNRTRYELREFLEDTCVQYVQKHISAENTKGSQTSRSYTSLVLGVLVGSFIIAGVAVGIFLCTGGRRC
Chain of UniProt O00468 (O00468 other isoform, or with tags, fused parts or gaps limits assumed): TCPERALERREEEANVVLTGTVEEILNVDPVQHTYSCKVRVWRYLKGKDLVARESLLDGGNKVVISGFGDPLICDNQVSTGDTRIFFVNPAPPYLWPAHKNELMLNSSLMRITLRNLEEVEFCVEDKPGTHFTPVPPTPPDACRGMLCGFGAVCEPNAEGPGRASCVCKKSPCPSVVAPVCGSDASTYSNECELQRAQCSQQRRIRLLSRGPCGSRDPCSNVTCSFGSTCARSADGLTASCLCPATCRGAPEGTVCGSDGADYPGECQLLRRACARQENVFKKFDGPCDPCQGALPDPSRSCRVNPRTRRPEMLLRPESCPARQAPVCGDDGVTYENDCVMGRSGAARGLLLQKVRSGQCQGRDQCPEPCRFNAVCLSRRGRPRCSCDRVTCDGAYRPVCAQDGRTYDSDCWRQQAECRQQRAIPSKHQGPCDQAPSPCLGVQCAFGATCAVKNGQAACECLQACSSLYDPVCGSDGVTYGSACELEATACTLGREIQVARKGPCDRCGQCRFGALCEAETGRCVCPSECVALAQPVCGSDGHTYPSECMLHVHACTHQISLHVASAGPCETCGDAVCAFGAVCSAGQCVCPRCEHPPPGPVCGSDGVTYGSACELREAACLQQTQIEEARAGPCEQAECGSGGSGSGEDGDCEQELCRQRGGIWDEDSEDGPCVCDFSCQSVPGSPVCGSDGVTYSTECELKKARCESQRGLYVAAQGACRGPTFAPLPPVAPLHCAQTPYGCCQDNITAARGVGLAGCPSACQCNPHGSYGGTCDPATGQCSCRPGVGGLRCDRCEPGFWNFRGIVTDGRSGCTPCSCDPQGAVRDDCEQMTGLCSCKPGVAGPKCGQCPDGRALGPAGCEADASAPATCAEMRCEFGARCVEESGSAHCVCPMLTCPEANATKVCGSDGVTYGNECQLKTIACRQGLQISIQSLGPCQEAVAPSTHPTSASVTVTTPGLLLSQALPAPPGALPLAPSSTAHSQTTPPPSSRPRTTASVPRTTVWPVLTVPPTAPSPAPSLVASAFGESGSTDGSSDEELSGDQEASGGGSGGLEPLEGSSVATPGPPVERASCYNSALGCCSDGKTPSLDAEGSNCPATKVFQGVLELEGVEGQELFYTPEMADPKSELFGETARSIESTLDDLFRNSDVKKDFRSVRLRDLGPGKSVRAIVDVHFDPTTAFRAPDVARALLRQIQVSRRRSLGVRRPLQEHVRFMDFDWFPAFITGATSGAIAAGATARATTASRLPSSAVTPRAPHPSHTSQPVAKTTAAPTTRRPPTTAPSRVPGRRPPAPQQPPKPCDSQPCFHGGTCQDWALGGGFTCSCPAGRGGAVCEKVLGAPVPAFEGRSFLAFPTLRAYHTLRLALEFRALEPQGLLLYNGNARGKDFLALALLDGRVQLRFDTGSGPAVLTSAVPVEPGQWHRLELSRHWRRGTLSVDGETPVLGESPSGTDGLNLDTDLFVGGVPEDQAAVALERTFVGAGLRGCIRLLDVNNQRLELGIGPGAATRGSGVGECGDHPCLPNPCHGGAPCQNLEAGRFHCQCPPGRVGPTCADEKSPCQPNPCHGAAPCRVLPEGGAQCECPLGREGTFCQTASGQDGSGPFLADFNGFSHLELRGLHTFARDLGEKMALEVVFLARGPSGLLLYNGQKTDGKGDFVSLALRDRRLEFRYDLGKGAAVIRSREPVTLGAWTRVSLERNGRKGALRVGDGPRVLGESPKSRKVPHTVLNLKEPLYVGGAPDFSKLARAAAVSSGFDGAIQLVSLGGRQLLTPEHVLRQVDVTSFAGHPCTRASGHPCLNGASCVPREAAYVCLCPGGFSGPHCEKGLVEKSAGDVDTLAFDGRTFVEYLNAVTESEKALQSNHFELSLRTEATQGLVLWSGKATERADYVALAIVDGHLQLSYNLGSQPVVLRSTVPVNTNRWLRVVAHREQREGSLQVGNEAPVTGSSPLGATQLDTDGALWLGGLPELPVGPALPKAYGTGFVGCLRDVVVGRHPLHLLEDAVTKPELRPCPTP
Chain of UniProt O15031 (O15031 20-1838 limits assumed): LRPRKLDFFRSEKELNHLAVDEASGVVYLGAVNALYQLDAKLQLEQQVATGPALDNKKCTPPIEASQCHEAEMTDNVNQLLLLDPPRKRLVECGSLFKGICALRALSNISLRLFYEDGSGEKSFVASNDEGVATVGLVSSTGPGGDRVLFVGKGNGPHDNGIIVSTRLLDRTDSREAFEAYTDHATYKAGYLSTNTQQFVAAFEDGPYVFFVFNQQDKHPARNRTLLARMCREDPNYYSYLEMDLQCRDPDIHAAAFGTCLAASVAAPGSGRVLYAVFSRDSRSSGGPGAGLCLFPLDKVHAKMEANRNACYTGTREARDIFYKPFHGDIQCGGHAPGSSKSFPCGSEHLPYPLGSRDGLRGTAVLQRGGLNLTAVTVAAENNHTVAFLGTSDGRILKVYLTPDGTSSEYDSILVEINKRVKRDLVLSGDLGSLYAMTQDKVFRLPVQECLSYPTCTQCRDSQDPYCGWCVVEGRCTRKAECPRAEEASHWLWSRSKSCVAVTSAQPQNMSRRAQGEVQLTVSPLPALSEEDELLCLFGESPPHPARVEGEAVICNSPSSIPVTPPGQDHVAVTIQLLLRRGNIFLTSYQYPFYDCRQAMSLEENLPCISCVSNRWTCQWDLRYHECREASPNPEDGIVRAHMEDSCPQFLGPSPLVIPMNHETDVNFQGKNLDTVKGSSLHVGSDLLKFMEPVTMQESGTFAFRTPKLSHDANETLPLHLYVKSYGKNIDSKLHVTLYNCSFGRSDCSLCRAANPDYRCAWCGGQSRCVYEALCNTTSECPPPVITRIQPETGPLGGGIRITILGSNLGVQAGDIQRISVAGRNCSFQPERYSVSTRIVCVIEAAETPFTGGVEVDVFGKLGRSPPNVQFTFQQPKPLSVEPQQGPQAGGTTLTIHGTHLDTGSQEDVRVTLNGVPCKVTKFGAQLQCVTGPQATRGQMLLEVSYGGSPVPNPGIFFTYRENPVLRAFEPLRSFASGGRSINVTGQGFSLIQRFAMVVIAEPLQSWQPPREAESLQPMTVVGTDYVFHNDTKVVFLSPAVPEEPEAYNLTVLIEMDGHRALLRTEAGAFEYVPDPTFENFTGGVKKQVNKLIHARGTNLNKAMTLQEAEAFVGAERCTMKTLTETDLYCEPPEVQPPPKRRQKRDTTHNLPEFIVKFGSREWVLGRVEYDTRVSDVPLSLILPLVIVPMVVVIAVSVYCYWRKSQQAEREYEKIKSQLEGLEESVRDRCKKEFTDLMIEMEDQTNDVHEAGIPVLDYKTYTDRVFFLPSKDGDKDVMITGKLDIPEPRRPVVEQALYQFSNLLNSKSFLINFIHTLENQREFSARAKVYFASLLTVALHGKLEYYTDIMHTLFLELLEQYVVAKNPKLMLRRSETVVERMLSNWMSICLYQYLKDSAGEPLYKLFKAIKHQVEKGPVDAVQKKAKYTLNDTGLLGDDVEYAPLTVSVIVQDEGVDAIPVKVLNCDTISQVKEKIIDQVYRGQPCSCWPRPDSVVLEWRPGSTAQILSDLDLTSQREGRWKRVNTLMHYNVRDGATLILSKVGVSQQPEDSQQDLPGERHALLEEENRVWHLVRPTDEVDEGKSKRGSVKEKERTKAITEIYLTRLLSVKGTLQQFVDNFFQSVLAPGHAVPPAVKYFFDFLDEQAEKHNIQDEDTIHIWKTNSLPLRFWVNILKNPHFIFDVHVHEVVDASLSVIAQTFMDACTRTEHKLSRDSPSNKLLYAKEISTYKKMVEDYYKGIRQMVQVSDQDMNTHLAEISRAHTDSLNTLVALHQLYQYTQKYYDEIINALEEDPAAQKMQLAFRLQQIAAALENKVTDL
Chain of UniProt O75477 (O75477 whole entry): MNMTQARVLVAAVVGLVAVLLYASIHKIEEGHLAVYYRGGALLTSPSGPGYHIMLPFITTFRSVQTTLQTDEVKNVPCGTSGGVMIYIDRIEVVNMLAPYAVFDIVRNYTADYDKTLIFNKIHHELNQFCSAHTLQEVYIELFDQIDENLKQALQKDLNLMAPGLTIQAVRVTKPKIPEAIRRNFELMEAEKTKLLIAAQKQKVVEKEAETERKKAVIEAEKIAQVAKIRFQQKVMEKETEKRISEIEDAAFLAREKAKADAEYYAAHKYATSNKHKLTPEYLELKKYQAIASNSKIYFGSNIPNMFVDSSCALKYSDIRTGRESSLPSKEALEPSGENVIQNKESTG

For Avaren-Fc (AvFc) (Fc fusion), the Percentage of Total Spectra (%) [1] was 0.35%, the Percentage of Total Spectra (%) [2] was 0.066% and the Percentage of Total Spectra (%) [3] was 0.23%. For the same substance, the Percentage of Total Spectra (%) [4] was 0.12%, the Percentage of Total Spectra (%) [5] was 0.083% and the Percentage of Total Spectra (%) [6] was 0.058%. For the same substance, the Percentage of Total Spectra (%) [7] was 0.058%, the Percentage of Total Spectra (%) [8] was 0.13% and the Percentage of Total Spectra (%) [9] was 0.033%. For the same substance, the Percentage of Total Spectra (%) [10] was 0.13%, the Percentage of Total Spectra (%) [11] was 0.11% and the Percentage of Total Spectra (%) [12] was 0.083%. The Percentage of Total Spectra (%) [13] was 0.15%, the Percentage of Total Spectra (%) [14] was 0.056% and the Percentage of Total Spectra (%) [15] was 0.21%. For the same substance, the Percentage of Total Spectra (%) [16] was 0.028%, the Percentage of Total Spectra (%) [17] was 0.11% and the Percentage of Total Spectra (%) [18] was 0.2%. The Percentage of Total Spectra (%) [19] was 0.11%, the Percentage of Total Spectra (%) [20] was 0.13% and the Percentage of Total Spectra (%) [21] was 0.056%. For the same substance, the Percentage of Total Spectra (%) [22] was 0.11%, the Percentage of Total Spectra (%) [23] was 0.36% and the Percentage of Total Spectra (%) [24] was 0.07%. It also gave a Percentage of Total Spectra (%) [25] of 0.07%, a Percentage of Total Spectra (%) [26] of 0.091% and a Percentage of Total Spectra (%) [27] of 0.11%. For the same substance, the Percentage of Total Spectra (%) [28] was 0.014%, the Percentage of Total Spectra (%) [29] was 0.021% and the Percentage of Total Spectra (%) [30] was 0.056%. It also gave a Percentage of Total Spectra (%) [31] of 0.014%, a Percentage of Total Spectra (%) [32] of 0.084% and a Percentage of Total Spectra (%) [33] of 0.12%. For the same substance, the Percentage of Total Spectra (%) [34] was 0.021%, the Percentage of Total Spectra (%) [35] was 0.098% and the Percentage of Total Spectra (%) [36] was 0.21%. The Percentage of Total Spectra (%) [37] was 0.056%, the Percentage of Total Spectra (%) [38] was 0.056% and the Percentage of Total Spectra (%) [39] was 0.063%.
